Assay results from publication PMC4351601, “Structural basis for self-assembly of a cytolytic pore lined by protein and lipid” (Nature Communications, 2015).

B1: FraC mutein V60E/W149A (natural protein)
chain: SADVAGAVIDGAGLGFDVLKTVLEALGNVKRKIAVGIDNESGKTWTAMNTYFRSGTSDIELPHKVAHGKALLYNGQKNRGPVATGVVGVIAYSMSDGNTLAVLFSVPYDYNWYSNWWNVRVYKGQKRADQRMYEELYYHRSPFRGDNGAHSRGLGYGLKSRGFMNSSGHAILEIHVTKA
B2: FraC mutein V8C/K69C, oxidised (engineered disulfide bond between the N-terminal and beta-core regions) (natural protein)
chain: SADVAGACIDGAGLGFDVLKTVLEALGNVKRKIAVGIDNESGKTWTAMNTYFRSGTSDIVLPHKVAHGCALLYNGQKNRGPVATGVVGVIAYSMSDGNTLAVLFSVPYDYNWYSNWWNVRVYKGQKRADQRMYEELYYHRSPFRGDNGWHSRGLGYGLKSRGFMNSSGHAILEIHVTKA
B3: fragaceatoxin C (FraC), wild type (natural protein)
chain: SADVAGAVIDGAGLGFDVLKTVLEALGNVKRKIAVGIDNESGKTWTAMNTYFRSGTSDIVLPHKVAHGKALLYNGQKNRGPVATGVVGVIAYSMSDGNTLAVLFSVPYDYNWYSNWWNVRVYKGQKRADQRMYEELYYHRSPFRGDNGWHSRGLGYGLKSRGFMNSSGHAILEIHVTKA
notes: no tag is mentioned; also called water-soluble FraC; monomeric FraC; source: E. coli BL21 (DE3), purified (Resource S cation exchange, Superdex 75 SEC)

Experiments:
[1] = target: the molecule itself; experiment: cell-based or functional assay
[2] = target: the molecule itself; experiment: crystal structure; dimeric form (assembly intermediate); crystals with 100 mM POC, 3 mM DDM, 200 mM Li2SO4, PEG 8,000, sodium acetate pH 4.1-4.3; two crystal forms, 1.57 and 1.60 Å
[3] = target: the molecule itself; experiment: crystal structure; transmembrane pore; water-soluble FraC incubated with lipid vesicles, solubilised and purified in detergent (DDM 0.015%), crystallised by the lipid sponge phase method, 20 °C; 3.1 Å; 24 bound lipids modelled as SM

Protein	haemolytic activity (horse erythrocytes), relative to wild-type FraC [1]	stoichiometry N [2]	stoichiometry N [3]
B1	~16 % of wild type	–	–
B2	1 % of wild type	–	–
B3	–	2	8
